Measurements published in patent publication US6706762.
Values joined by “and” are separate entries in the source; they are usually repeats but may differ in a detail not shown here. Equal entries are not always repeated.

Molecular target: GAL-C-SMRT (yeast) (UniProt P04386)
Test: cell-based or functional assay

Substance | UAS reporter expression, mammalian two-hybrid [fold] | fold lower sensitivity to ATRA than the SMRT/RARα interaction, mammalian two-hybrid
VP16-PLZF (from UniProt Q05516 1-673) | 25 | 
VP-PML-RARα (from UniProt P29590 1-552; P10276 61-462) |  | 100 fold and 200 fold
